Usually IC50 stands for the concentration at which inhibition is half-maximal. The Ki is a dissociation constant, usually derived from enzyme kinetics or from competition with a known ligand. In general, EC50 (read off the curve) refers to the concentration that produces a half-maximal response. Usually Kd stands for the free concentration of one partner at which half of the binding sites on the other are occupied at equilibrium, for simple one-to-one binding. A higher Kd goes with a looser complex. In general, EC50 refers to the concentration needed to bring the measured effect to its halfway point. Read a low EC50 as higher potency in that assay.

Assay [1] addresses cloned human wild-type GPR10 (370 amino acids) (human) (UniProt P49683). The assay can be described thus: cell-based or functional assay.
Assay [2] has as its target cloned human NH2-terminus truncated (mutant) GPR10 (306 amino acids) (human) (UniProt P49683). Nature of the assay: cell-based or functional assay.
The target in assay [3] is cloned human wild-type GPR10 (370 amino acids) (human) (UniProt P49683). The assay can be described thus: displacement of 0.05 nM [125I]PrRP from CHO-hGPR10 cell membranes, 2-site competition model, site 2.
Assay [4] has the same target. Nature of the assay: displacement of 0.05 nM [125I]PrRP from CHO-hGPR10 cell membranes, 2-site competition model, site 1.
Assay [5] shares this target. The assay can be described thus: radioligand saturation binding on CHO-hGPR10 cell membranes, at [125I]PrRP concentrations near the KD.
The target is the same in assay [6]. Nature of the assay: saturation radioligand binding on CHO-hGPR10 cell membranes; non-specific binding determined with 1.0 uM unlabelled PrRP.
Assay [7] shares this target. Nature of the assay: radioligand saturation binding on CHO-hGPR10 cell membranes, 2-site model, site 2.
For assay [8] the target is unchanged. Nature of the assay: radioligand saturation binding on CHO-hGPR10 cell membranes, 2-site model, site 1.
Assay [9] addresses T1, cloned human wild-type GPR10 (Homo sapiens, UniProt P49683).
T1 construct: For cloning of human wild-type GPR10 ORF, a DNA fragment was amplified from human genomic DNA; expressed in transfected cells
T1 sequence (P49683 1-370): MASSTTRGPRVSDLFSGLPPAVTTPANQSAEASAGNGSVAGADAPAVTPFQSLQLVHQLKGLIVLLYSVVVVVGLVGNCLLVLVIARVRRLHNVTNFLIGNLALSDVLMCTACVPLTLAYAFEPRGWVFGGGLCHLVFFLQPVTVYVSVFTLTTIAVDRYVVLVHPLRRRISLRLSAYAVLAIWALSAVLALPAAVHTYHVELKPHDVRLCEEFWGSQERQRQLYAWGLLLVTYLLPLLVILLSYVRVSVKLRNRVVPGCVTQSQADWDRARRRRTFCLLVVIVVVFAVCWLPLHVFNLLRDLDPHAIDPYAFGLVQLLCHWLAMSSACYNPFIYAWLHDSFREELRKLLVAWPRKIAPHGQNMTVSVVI
The assay can be described thus: [3H]arachidonic acid release from CHO-hGPR10 cells. The class given is cell-based. The method, then: CHO cells stably expressing cloned human wild-type GPR10 (CHO-hGPR10 cells) were generated as described in Examples 2-3. CHO-hGPR10 were cultured in F-12 HAM medium supplemented with 2.0 mM L-glutamine, 10% (v/v) dialyzed fetal bovine serum, 1.0% hypoxanthine-thymidine supplement, and 1.0% G-418 selection agent. All of the cells were maintained at 37° C. in an atmosphere of 5% CO2 and passaged when ˜80% confluent using a non-enzymatic cell dissociation buffer (Sigma-Aldrich Corporation). CHO-hGPR10 cells were harvested when ˜70% confluent for use in [^3H]arachidonic acid release assays, which were performed as follows:
CHO-hGPR10 cells were plated at a density of 150,000 cells/well in 12 well tissue culture plates, rinsed 24 hr later with calcium and magnesium free Hank's Balanced Salt Solution (Gibco-BRL), and left to incubate for 4 hr in F-12 culture medium (1.0 ml/well) containing 100 nCi/ml of [^3H]arachidonic acid. The cells were then rinsed and incubated for 5 min in 1.0 ml/well of Hank's Balanced Salt Solution (Invitrogen Corp. CA) containing 20 mM HEPES buffer (Sigma-Aldrich Corp.) and 0.1% (w/v) fatty acid-free bovine serum albumin (Sigma-Aldrich Corp.). After repeating this rinse and incubation procedure 3 times, 1.0 ml of vehicle, PrRP or Compound X was added to each well and plates were left to incubate for 30 min at 37° C. 400 μl of the extracellular liquid present in each well was mixed with 2.6 ml of liquid scintillation cocktail and counted by liquid scintillation counting (1272 Clinigamma, LKB/Wallach) to calculate the total [^3H] radioactivity present in each well. All of the reactions were performed in triplicate, at concentrations in the 0.01 to 10,000 nM range, to determine the effects of PrRP and Compound X on basal [^3H]arachidonic acid release from CHO-hGPR10 cells. […]

The target in assay [10] is T1, cloned human wild-type GPR10. Nature of the assay: [125I]PrRP competition binding to CHO-hGPR10 cell membranes. As to conditions: 2-site competition model, site 2, 0.05 nM [125I]PrRP. The procedure: Next, PrRP and compound X (molecular weight=318.38) were studied in quadruplicate at nanomolar to micromolar concentrations (PrRP at 0.01, 0.1, 0.5, 1, 5, 10, 50 and 100 nM; Compound X at 100, 300, 1000, 3000 and 10,000 nM) to determine their respective displacement of [^125I]PrRP (Amersham Biosciences UK Limited; catalog #IM341, Specific Activity=2000 Ci/mmol) binding to CHO-hGPR10 cell membranes. Membranes (20 μg protein) were incubated with 0.05 nM [^125I]PrRP, Compound X or vehicle, and buffer comprising 20 mM Tris (pH 7.4), 2.0 mM EGTA, 5.0 mM C4H6MgO4, 0.5 mM phenylmethylsulfonyl fluoride, 1.0 μg/ml pepstatin, 1.0 μl/ml protease inhibitor cocktail, and 0.1% (w/v) BSA. All of the reactions were performed in 96-well Basic Flashplates®, terminated by centrifugation (3,000 g×7 min) after a 90 min incubation at room temperature, and radioactive counts associated with membrane-bound [^125I]PrRP were counted in each well using a Microbeta TriLux microscintillation counter. Non-linear regression analysis of the competition binding data was used to calculate inhibition binding constants (IC50 and Ki), which is the concentration of Compound X that occupies half of the CHO-hGPR10 receptors specifically bound by 0.05 nM [^125I]PrRP. […]

The conditions of assay [11]: rats; cited from earlier work.
Assay [12] has as its target T2, cloned human NH2-terminus truncated GPR10 (Homo sapiens, UniProt P49683, L65M).
T2 construct: expressed in transfected cells
T2 sequence (P49683 65-370 L65M limits assumed): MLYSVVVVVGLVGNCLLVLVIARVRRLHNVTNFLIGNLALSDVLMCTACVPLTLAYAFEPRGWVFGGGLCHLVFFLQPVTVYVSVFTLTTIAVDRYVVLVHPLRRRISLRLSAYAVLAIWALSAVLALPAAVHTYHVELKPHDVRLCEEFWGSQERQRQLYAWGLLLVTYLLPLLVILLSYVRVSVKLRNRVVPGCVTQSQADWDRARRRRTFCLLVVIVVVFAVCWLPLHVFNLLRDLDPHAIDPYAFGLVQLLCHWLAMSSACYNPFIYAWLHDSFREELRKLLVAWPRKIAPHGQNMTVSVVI
Nature of the assay: [3H]arachidonic acid release from CHO-T-hGPR10 cells. The class given is cell-based. The procedure: CHO cells were generated to stably express a cloned truncated form of the human GPR10, as described in Examples 2-3. These CHO-T-hGPR10 cells, which express a truncation of the first 64 amino acids present in the wild-type cloned human GPR10, were cultured in F-12 HAM medium, supplemented with 2.0 mM L-glutamine, 10% (v/v) dialyzed fetal bovine serum, 1.0% hypoxanthine-thymidine supplement and 1.0% G-418 selection agent. All of the cells were maintained at 37° C. in an atmosphere of 5% CO2 and passaged when ˜80% confluent using a non-enzymatic cell dissociation buffer (Sigma-Aldrich Corporation). CHO-T-hGPR10 cells were harvested when ˜70% confluent for use in [^3H]arachidonic acid release assays carried out as described below.
The effects of PrRP and Compound X on basal [^3H]arachidonic acid release from CHO-T-hGPR10 cells was performed using exactly the same assay procedure described in Example 7. PrRP and Compound X were each tested in triplicate at concentrations in the 0.01 to 10,000 nM range.
The mean radioactive counts (±SEM, N=3) detected in each reaction triplicate were calculated, and binding isotherms were analyzed by non-linear regression, using GraphPad Prism version 3.00 for Windows, to estimate the potency (EC50 with 95% confidence interval) and relative intrinsic activity (Emax as % basal release±SEM) of PrRP and Compound X. The results are shown in FIG. 19. […]

Some results are limits rather than exact numbers.

For the substance “PrRP (prolactin-releasing peptide), unlabelled”, in assay [1], the [^3H]arachidonic acid release from CHO-hGPR10 cells, EC50 came to 0.043 nM; the [^3H]arachidonic acid release from CHO-hGPR10 cells, Emax (as % 1.0 nM PrRP) worked out at 75.3%; the [^3H]arachidonic acid release from CHO-hGPR10 cells, Emax (as a % of 1 nM PrRP) came out at 105%. The [^3H]arachidonic acid release from CHO-T-hGPR10 cells, Emax (as % basal release) in assay [2] is 3.6%. In [3], this substance yielded a concentration for half-maximal inhibition (IC50) of 0.5 nM and an inhibitory constant (Ki) of 0.29 nM. In assay [4], this substance yielded a half-maximal inhibitory concentration (IC50) of 0.0007 nM and a Ki of 0.0004 nM.
“[^125I]PrRP (radioiodinated prolactin-releasing peptide)” gave a percent of total binding that was specific in assay [5] of more than 80%. The EC50 (read off the curve) in [6] was found to be 0.07 nM. Also, the Kd in [7] was 0.072 nM; in assay [8], 0.07 nM.
As for prolactin-releasing peptide [PrRP], the “Emax, relative intrinsic activity” value in assay [9] (1.0 μM PrRP alone (Example 9)) was found to be 75.3±6.1%. In assay [9] (as % of 1 nM PrRP, tested alone), the “Emax, relative intrinsic activity” value is 105.4±6.1%. In [9] (tested alone), the EC50 worked out at 0.043 nM. In assay [10], this substance gave a Ki of 0.29 nM. Also, the IC50 in assay [10] (read-out: IC50 (2) displacement of [125I]PrRP) worked out at 0.5 nM. Further, in [11], the ACTH entry was “increase”, the body weight result is “reduce”, the food intake result is on record as “reduce” and the plasma oxytocin result is “increase”. Besides, the wakefulness entry in assay [11] is recorded as “promote wakefulness”. Moreover, in assay [12] (1.0 nM PrRP alone, as % basal release), the “Emax, relative intrinsic activity” value came to 3.6±4.4%. Also, the “activity on basal [3H]arachidonic acid release” value in assay [12] (0.01 to 10,000 nM) was “inactive”.

These data come from patent publication US20040216177A1, “Congenic rats containing a mutant GPR10 gene” (OTSUKA PHARMACEUTICAL CO., LTD., priority 2003, published 2004).
